Assay results as given in patent US20250242017A1, “HISTAMINE AND HRH1 SIGNALING ACTIVITY AS BIOMARKERS AND ASSOCIATED METHODS” (Board of Regents, The University of Texas System, priority 2022, published 2025).

How the values were obtained:
melanoma patients = test: Retrospective Epic SlicerDicer analysis of anti-PD-1/PD-L1-treated melanoma patients; format: in vivo, human; settings: patients taking the medicine during anti-PD-1/PD-L1 treatment vs those who did not
Description: Epic SlicerDicer software analysis. Our retrospective study was conducted on melanoma patients encountered during 2016-2017 at The University of Texas MD Anderson Cancer Center, which draws a diverse range of local, regional, national, and international patients. The study population consisted of all melanoma patients with of International Classification of Diseases (ICD) code C43 (10th version). Anonymized aggregate-level data were collected using the SlicerDicer function within MD Anderson Epic electronic medical records. Institutional Review Board approval was therefore waived. Using the Epic SlicerDicer, we identified 9922 patients with a visit diagnosis, billing diagnosis, or active problem list with malignant skin of melanoma (ICD-10-CM:C43, which includes all subgroups). EPIC SlicerDicer was used to further identify 878 of these patients who received anti-PD-1 antibodies (pembrolizumab, nivolumab, or cemiplimab) or anti-PD-L1 antibodies (durvalumab, atezolizumab, or avelumab) treatment during the study period. […] The estimated patient deaths of each subgroup were calculated based on the patient number of each subgroup and the average patient death rate (39%, based on deceased patients out of total patients analyzed). […] The survival time was calculated as the days between the two dates. […]

[1] = tested on: early-stage breast cancer; test: Retrospective analysis of medications in stage 0 or 1 breast cancer patients; format: in vivo, human; settings: poor outcome = recurrence or death; for estimated patient number with poor outcome: based on estimated 2.54% of patients taking the medication; for actual patient number with poor outcome: patients taking the medication
Excerpt: To explore whether some medications have impact on early-stage breast cancer recurrence, we performed a retrospective analysis of the most commonly prescribed medications took by patients with stage 0 or stage 1 breast cancer. Stage 0 and 1 breast cancers are highly treatable early-stage breast cancers and generally have very good prognosis in the first five years. Typically, surgery, radiation, or a combination of the two are the standard treatments. Hormone therapy, depending on the type of cancer cells and additional risk factors, is also an option. To rule out potential impact of the medications on therapies, patients who received treatment other than surgeries were excluded. 1652 patients diagnosed with stage 0 or 1 breast cancer at MDACC between 2016-2021 were enrolled in the study. 29 patients have been diagnosed with cancer recurrence (1.76%) and 3 out of 29 patients were deceased by 2021. Another 13 patients were also deceased, but whether cancer is the cause of their deaths is not clear. Altogether, total 42 patients (2.54%) have poor clinical outcome, including cancer recurrence or death. We first analyzed the 50 most prescribed drugs in USA which include many common drugs such as Aspirin, Simvastatin, and Metformin. About half of the drugs (24) were took by >100 patients based on their electric health record. To cover more medications, we further expanded the drug list by adding the top 20 over-the-counter medicines (OTC) sold on AMAZON website. To explore potential impact of medications on cancer recurrence and patient mortality, we compared the predicated patient numbers with poor clinical outcomes (X-axis) based on the estimated 2.54% (the ratio of total patients with poor outcome to total number of patients) versus the actual patient number with poor outcomes (Y-axis) of each medication (FIG. 15A). Most medications show limited impacts on patients' outcome, including Aspirin (8.5 vs. 8, estimated vs. actual patient number with poor outcome) and Metformin (3.5 vs 4). […] Instead, antihistamine may intercept or delay early-stage breast cancer progression by enhancing immune surveillance.

CD8+ T cells = test: In vitro co-culture of macrophages with T cells; format: cell-based, mouse; settings: T cells co-cultured with histamine-treated macrophages vs vehicle-treated
Description: In vitro co-culture with T cells. Spleens from wild-type C57BL/6 or BALB/c mice were harvested and filtered through a […] cell strainer to generate a single-cell suspension. After red blood cell lysis, splenocytes were counted and plated in complete Roswell Park Memorial Institute 1640 medium supplemented with […] b-mercaptoethanol and 10 mM HEPES onto 12-well plates coated with […] anti-CD3 (clone 145-2C11, BioLegend) and […] anti-CD28 (clone 37N, BioLegend) antibodies. Spleen T cells were activated for 48 hours before co-culture with macrophages. To educate the macrophages, we co-cultured naïve BMDMs with tumor cells at a ratio of 1:1 or with tumor cell-derived conditioned medium for 48 hours. Macrophages were seeded with activated T cells at a ratio of 5:1. After co-culture for another 24 or 48 hours, T cells were collected for flow cytometry analysis.
(§1) Flow cytometry staining and analysis.

peritoneal macrophages = settings: histamine 10 mM, vs vehicle-treated
Description: Macrophage polarization and stimulation. To polarize macrophages toward an M1-like phenotype, we stimulated PBMC-derived macrophages or BMDMs with IFN-g (20 ng/ml, PeproTech) for 48 hours. To induce an M2-like phenotype, we treated THP-1-derived macrophages or BMDMs with IL-4 (20 ng/mL, PeproTech) for 48 hours. […] To stimulate macrophages with tumor cell-derived conditioned medium (TCM), we cultured BMDMs with complete medium containing 50% TCM (volume).
Flow cytometry staining and analysis. Live single cells were sub-gated by staining with Fixable Viability Dye eFluor 450 (eBioscience) for 15 minutes at 4° C. For blocking of Fc receptors, cells were then pre-incubated with purified anti-CD16/32 antibody (clone 93, BioLegend) for 10 minutes on ice before immunostaining. After one wash with flow cytometry buffer, cells were incubated with appropriate dilutions of various combinations of the following antibodies. […]

VISTA+ BMDMs = test: VISTA membrane expression on macrophages after Ca2+ flux modulation; format: cell-based, mouse
Excerpt: as §1

[2] = tested on: lung cancer, breast cancer, and colon cancer patients; test: Basket trial of anti-PD-1 treatment, response by pre-treatment plasma histamine (n=70); format: in vivo, human
Excerpt: (§2) Human samples. The untreated breast cancer samples including tumor tissues and blood plasma from TNBC patients who had undergone a mastectomy before therapy, normal breast tissues from women undergoing cosmetic breast surgery, and blood plasma from colon cancer patients and healthy subjects were collected at the First Affiliated Hospital of Chongqing Medical University. The blood plasma from patients with advanced lung (n=48), colon (n=12) and breast (n=10) cancers were collected pre-anti-PD1 treatment (patients were treated with Camrelizumab between Dec. 24, 2019 and Feb. 27, 2021) at the Beijing Friendship Hospital of Capital Medical. Best percentage change in the sum of the diameters for the selected target lesion is defined by Response Evaluation Criteria in Solid Tumors (RECIST version 1.1) on minimum 2 computed tomographic scans before treatment and 1 computed tomographic scan during treatment. The use of pathological specimens, as well as the review of all pertinent patient records, were approved by the Research Ethics Committee of the First Affiliated Hospital of Chongqing Medical University (project approval number 1005367 2017-012) and the Research Ethics Committee of Beijing Friendship Hospital of Capital Medical University (project approval number 2017-P2-141-01), and written informed consent were obtained from each participant and/or their legal representative, as appropriate.
(§3) Enzyme-linked immunosorbent assay (ELISA). The levels of histamine in cell culture supernatant, serum/plasma, and tissues were detected by Histamine ELISA kits (ENZ-KIT140-0001, Enzo; ab213975, Abcam) according to the manufacturer's instructions.

lung cancer patients = test: Responses of anti-PD-1-treated lung cancer patients by plasma histamine; format: in vivo, human; settings: patient count, lung cancer (n = 48)
Excerpt: as §2, §3

colon cancer patients = test: Responses of anti-PD-1-treated colon cancer patients by plasma histamine; format: in vivo, human; settings: patient count, colon cancer (n = 12)
Excerpt: as §2, §3

breast cancer patients = test: Responses of anti-PD-1-treated breast cancer patients by plasma histamine; format: in vivo, human; settings: patient count, breast cancer (n = 10)
Excerpt: as §2, §3

[3] = patients with high levels of plasma histamine (>0.6 ng/mL)
[4] = patients with low levels of plasma histamine (<0.3 ng/mL)
[5] = Histamine Medium (0.3-0.6 ng/ml)
[6] = Histamine Low (<0.3 ng/ml), no patients in group

With CC(=O)Oc1ccccc1C(=O)O [aspirin] the death rate (melanoma patients) was “reduced death rate”, the “estimated patient number with poor outcome” value [1] was 8.5 and the “actual patient number with poor outcome” value [1] was 8.

With CN(C)C(=N)N=C(N)N [Metformin] the “estimated patient number with poor outcome” value [1] was 3.5 and the “actual patient number with poor outcome” value [1] was 4.

NCCc1c[nH]cn1 [histamine] was tested, and the T cell activation (CD8+ T cells) was “significantly suppressed T cell activation” and the “M2-like marker CD206 and M1-like marker MHCII” value (peritoneal macrophages) was “increased M2-like marker CD206 and reduced M1-like marker MHCII”.

For CC1(C)S[C@@H]2[C@H](NC(=O)[C@H](N)c3ccccc3)C(=O)N2[C@H]1C(=O)O [ampicillin], the death rate (melanoma patients) was “increased death rate”.

For CC(=O)OCOC(=O)CN(CC(=O)OCOC(C)=O)c1ccccc1OCCOc1ccccc1N(CC(=O)OCOC(C)=O)CC(=O)OCOC(C)=O [BAPTA-AM], the “HRH1-mediated membrane VISTA expression” value (VISTA+ BMDMs; WT TAMs, BAPTA-AM) was “reduced HRH1-mediated membrane VISTA expression”.

C[C@H](CCC(=O)O)C[C@H](C)C[C@H](C)C(=O)/C=C(\O)[C@H](C)C[C@H](C)C/C=C/[C@@H](C)[C@@H](O)[C@@H](C)[C@@H](O)C[C@@H]1CC[C@@](C)([C@H]2CC[C@@](C)([C@@H](C)O)O2)O1 [ionomycin] was tested, and the “cell-surface VISTA expression” value (VISTA+ BMDMs; HRH1-/- TAMs, ionomycin) was “increased cell-surface VISTA expression”.

B1: Camrelizumab (antibody, chains of the INN, looked up, V domains shown)
VH: EVQLVESGGGLVQPGGSLRLSCAASGFTFSSYMMSWVRQAPGKGLEWVATISGGGANTYYPDSVKGRFTISRDNAKNSLYLQMNSLRAEDTAVYYCARQLYYFDYWGQGTTVTVSS
VL: DIQMTQSPSSLSASVGDRVTITCLASQTIGTWLTWYQQKPGKAPKLLIYTATSLADGVPSRFSGSGSGTDFTLTISSLQPEDFATYYCQQVYSIPWTFGGGTKVEIK
notes: anti-PD1 treatment of the basket-trial patients (Camrelizumab)
B1 was tested, and the “disease control rate (DCR)” value [2, 3] was 44%, the “overall response rate (ORR)” value [2, 3] was 16% and the “disease control rate (DCR)” value [2, 4] was 88.3%. For the same molecule, the “overall response rate (ORR)” value [2, 4] was 55.6%, the “Treatment response CR” value (lung cancer patients; Histamine High (≥0.6 ng/ml)) was 0 and the “Treatment response PD” value (lung cancer patients; Histamine High (≥0.6 ng/ml)) was 6. The “Treatment response PR” value (lung cancer patients; Histamine High (≥0.6 ng/ml)) was 2, the “Treatment response SD” value (lung cancer patients; Histamine High (≥0.6 ng/ml)) was 3 and the “Treatment response CR” value (lung cancer patients; Histamine Low (<0.3 ng/ml)) was 1. The “Treatment response PD” value (lung cancer patients; Histamine Low (<0.3 ng/ml)) was 2, the “Treatment response PR” value (lung cancer patients; Histamine Low (<0.3 ng/ml)) was 9 and the “Treatment response SD” value (lung cancer patients; Histamine Low (<0.3 ng/ml)) was 6. For the same molecule, the “Treatment response CR” value (lung cancer patients; [5]) was 0, the “Treatment response PD” value (lung cancer patients; [5]) was 6 and the “Treatment response PR” value (lung cancer patients; [5]) was 7. For the same molecule, the “Treatment response SD” value (lung cancer patients; [5]) was 6, the “Treatment response PD” value (colon cancer patients; Histamine High (≥0.6 ng/ml)) was 4 and the “Treatment response PR” value (colon cancer patients; Histamine High (≥0.6 ng/ml)) was 2. The “Treatment response SD” value (colon cancer patients; Histamine High (≥0.6 ng/ml)) was 2, the “Treatment response PD” value (colon cancer patients; [6]) was 0 and the “Treatment response PR” value (colon cancer patients; [6]) was 0. For the same molecule, the “Treatment response SD” value (colon cancer patients; [6]) was 0, the “Treatment response PD” value (colon cancer patients; [5]) was 1 and the “Treatment response PR” value (colon cancer patients; [5]) was 2. The “Treatment response SD” value (colon cancer patients; [5]) was 1, the “Treatment response PD” value (breast cancer patients; Histamine High (≥ 0.6 ng/ml)) was 4 and the “Treatment response PR” value (breast cancer patients; Histamine High (≥ 0.6 ng/ml)) was 0. The “Treatment response SD” value (breast cancer patients; Histamine High (≥ 0.6 ng/ml)) was 2, the “Treatment response PD” value (breast cancer patients; [6]) was 0 and the “Treatment response PR” value (breast cancer patients; [6]) was 0. The “Treatment response SD” value (breast cancer patients; [6]) was 0, the “Treatment response PD” value (breast cancer patients; [5]) was 1 and the “Treatment response PR” value (breast cancer patients; [5]) was 1. The “Treatment response SD” value (breast cancer patients; [5]) was 2.
